Experimental data taken from patent publication US20220259318A1 (Hoffmann-La Roche, published 2022).
Numbering of substitutions follows the chain as printed. “And” between values parts separate entries of the source, which are not always exact repeats. Identical values can stand only once.

B1: P1AE5739 (antibody, V domains shown)
VH: EVQLVESGGGVVQPGRSLRLSCAASGFSFSNYGMAWVRQAPGKGLEWVASISTGGGNTYYRDSVKGRFTISRDNAKNTLYLQMNSLRAEDTAVYYCTRHDRGGLYWGQGTMVTVSS
VL: DIVMTQSPLSLPVTPGEPASISCRSSKSLLHSNGITYVYWYLQKPGQSPQVLIYRMSNLASGVPDRFSGSGSGTDFTLKISRVEAEDVGVYHCGQLLENPYTFGQGTKLEIK
notes: Humanized 5F11 IgG; PGLALA Fc implied by the CAR-J assay; also called 5F11_VH1b + 5F11_VL1a
B2: P1AE5734 (antibody, V domains shown)
VH: B1 VH with E1Q, A75S
VL: B1 VL
notes: Humanized 5F11 IgG; PGLALA Fc implied by the CAR-J assay; also called 5F11_VH1a + 5F11_VL1a
B3: P1AE5735 (antibody, V domains shown)
VH: B1 VH with E1Q, A75S
VL: B1 VL with Q47K
notes: Humanized 5F11 IgG; PGLALA Fc implied by the CAR-J assay; also called 5F11_VH1a + 5F11_VL1b
B4: P1AE5736 (antibody, V domains shown)
VH: B1 VH with E1Q, A75S
VL: B1 VL with V51L, L59R
notes: Humanized 5F11 IgG; PGLALA Fc implied by the CAR-J assay; also called 5F11_VH1a + 5F11_VL2a
B5: P1AE5740 (antibody, V domains shown)
VH: B1 VH
VL: B1 VL with Q47K
notes: Humanized 5F11 IgG; PGLALA Fc implied by the CAR-J assay; also called 5F11_VH1b + 5F11_VL1b
B6: P1AE5746 (antibody, V domains shown)
VH: B1 VH with E1Q, R61A, A75S
VL: B1 VL with V51L, L59R
notes: Humanized 5F11 IgG; PGLALA Fc implied by the CAR-J assay; also called 5F11_VH1c + 5F11_VL2a
B7: P1AE5750 (antibody, V domains shown)
VH: B1 VH with R61A
VL: B1 VL
notes: Humanized 5F11 IgG; PGLALA Fc implied by the CAR-J assay; also called 5F11_VH1d + 5F11_VL1a
B8: P1AE5751 (antibody, V domains shown)
VH: B1 VH with R61A
VL: B1 VL with Q47K
notes: Humanized 5F11 IgG; PGLALA Fc implied by the CAR-J assay; also called 5F11_VH1d + 5F11_VL1b
B9: P1AE5752 (antibody, V domains shown)
VH: B1 VH with R61A
VL: B1 VL with V51L, L59R
notes: Humanized 5F11 IgG; PGLALA Fc implied by the CAR-J assay; also called 5F11_VH1d + 5F11_VL2a
B10: P1AE5755 (antibody, V domains shown)
VH: B1 VH with V11L, R16G
VL: B1 VL
notes: Humanized 5F11 IgG; PGLALA Fc implied by the CAR-J assay; also called 5F11_VH2b + 5F11_VL1a
B11: P1AE5756 (antibody, V domains shown)
VH: B1 VH with V11L, R16G
VL: B1 VL with Q47K
notes: Humanized 5F11 IgG; PGLALA Fc implied by the CAR-J assay; also called 5F11_VH2b + 5F11_VL1b
B12: P1AE5757 (antibody, V domains shown)
VH: B1 VH with V11L, R16G
VL: B1 VL with V51L, L59R
notes: Humanized 5F11 IgG; PGLALA Fc implied by the CAR-J assay; also called 5F11_VH2b + 5F11_VL2a
B13: P1AE5760 (antibody, V domains shown)
VH: B1 VH with V11L, R16G, R61A
VL: B1 VL
notes: Humanized 5F11 IgG; PGLALA Fc implied by the CAR-J assay; also called 5F11_VH2d + 5F11_VL1a
B14: P1AE5761 (antibody, V domains shown)
VH: B1 VH with V11L, R16G, R61A
VL: B1 VL with Q47K
notes: Humanized 5F11 IgG; PGLALA Fc implied by the CAR-J assay; also called 5F11_VH2d + 5F11_VL1b
B15: P1AE5762 (antibody, V domains shown)
VH: B1 VH with V11L, R16G, R61A
VL: B1 VL with V51L, L59R
notes: Humanized 5F11 IgG; PGLALA Fc implied by the CAR-J assay; also called 5F11_VH2d + 5F11_VL2a
B16: P1AE5742 (antibody, V domains shown)
VH: B1 VH
VL: DIVMTQSPDSLAVSLGERATINCKSSKSLLHSNGITYVYWYQQKPGQPPKLLIYRMSNLASGVPDRFSGSGSGTDFTLTISSLQAEDVAVYHCGQLLENPYTFGQGTKLEIK
notes: Humanized 5F11 IgG; PGLALA Fc implied by the CAR-J assay; also called 5F11_VH1b + 5F11_VL2b
B17: P1AE5737 (antibody, V domains shown)
VH: B1 VH with E1Q, A75S
VL: B16 VL
notes: Humanized 5F11 IgG; PGLALA Fc implied by the CAR-J assay; also called 5F11_VH1a + 5F11_VL2b
B18: P1AE5747 (antibody, V domains shown)
VH: B1 VH with E1Q, R61A, A75S
VL: B16 VL
notes: Humanized 5F11 IgG; PGLALA Fc implied by the CAR-J assay; also called 5F11_VH1c + 5F11_VL2b
B19: P1AE5753 (antibody, V domains shown)
VH: B1 VH with R61A
VL: B16 VL
notes: Humanized 5F11 IgG; PGLALA Fc implied by the CAR-J assay; also called 5F11_VH1d + 5F11_VL2b
B20: P1AE5758 (antibody, V domains shown)
VH: B1 VH with V11L, R16G
VL: B16 VL
notes: Humanized 5F11 IgG; PGLALA Fc implied by the CAR-J assay; also called 5F11_VH2b + 5F11_VL2b
B21: P1AE5743 (antibody, V domains shown)
VH: B1 VH
VL: EIVLTQSPGTLSLSPGERATLSCRASKSLLHSNGITYVYWYQQKPGQAPRLLIYRMSNLASGIPDRFSGSGSGTDFTLTISRLEPEDFAVYHCGQLLENPYTFGQGTKLEIK
notes: Humanized 5F11 IgG; PGLALA Fc implied by the CAR-J assay; also called 5F11_VH1b + 5F11_VL2c
B22: P1AE5738 (antibody, V domains shown)
VH: B1 VH with E1Q, A75S
VL: B21 VL
notes: Humanized 5F11 IgG; PGLALA Fc implied by the CAR-J assay; also called 5F11_VH1a + 5F11_VL2c
B23: P1AE5749 (antibody, V domains shown)
VH: B1 VH with E1Q, R61A, A75S
VL: B21 VL
notes: Humanized 5F11 IgG; PGLALA Fc implied by the CAR-J assay; also called 5F11_VH1c + 5F11_VL2c
B24: P1AE5754 (antibody, V domains shown)
VH: B1 VH with R61A
VL: B21 VL
notes: Humanized 5F11 IgG; PGLALA Fc implied by the CAR-J assay; also called 5F11_VH1d + 5F11_VL2c
B25: P1AE5759 (antibody, V domains shown)
VH: B1 VH with V11L, R16G
VL: B21 VL
notes: Humanized 5F11 IgG; PGLALA Fc implied by the CAR-J assay; also called 5F11_VH2b + 5F11_VL2c
B26: P1AE5764 (antibody, V domains shown)
VH: B1 VH with V11L, R16G, R61A
VL: B21 VL
notes: Humanized 5F11 IgG; PGLALA Fc implied by the CAR-J assay; also called 5F11_VH2d + 5F11_VL2c

biological target: T1, human GPRC5D (human, UniProt Q9NZD1 1-345); assay: cell-based or functional assay
T1 sequence (Q9NZD1 whole entry): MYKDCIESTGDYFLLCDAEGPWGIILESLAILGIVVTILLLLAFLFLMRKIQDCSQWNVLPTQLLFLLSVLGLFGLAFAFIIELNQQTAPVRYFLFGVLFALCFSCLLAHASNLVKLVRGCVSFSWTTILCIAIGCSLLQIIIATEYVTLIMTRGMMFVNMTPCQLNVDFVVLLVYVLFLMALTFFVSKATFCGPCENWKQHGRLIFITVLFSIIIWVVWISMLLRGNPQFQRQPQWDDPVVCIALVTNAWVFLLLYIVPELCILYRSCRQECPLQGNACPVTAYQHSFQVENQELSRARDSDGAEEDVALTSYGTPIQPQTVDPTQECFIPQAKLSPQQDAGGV

Binder	CAR-J2 EC50 [ng/mL] (PGLALA-CAR-J activation, L363 target cells)
B1	23.5
B2	41.5
B3	82.1
B4	1.38
B5	8.96
B6	514
B7	20.6
B8	6.44
B9	509
B10	152
B11	170
B12	145
B13	190
B14	74.6
B15	84.2
B16	61.9
B17	2.95
B18	183
B19	30
B20	190
B21	583
B22	397
B23	82.6
B24	8.89
B25	15.7
B26	78.2

biological target: T1, human GPRC5D; assay: cell ELISA, CHO hu GPRC5D (EC/IC50 rel)
Experimental: Stable transfected CHO clones expressing either human GPRCSD or cynomolgus GPRCSD or murine GPRCSD or human GPRCSA were used to analyze the binding of potential lead candidate antibodies as IgGs. In detail, 10⁴ cells (viability≥98%) were seeded into 384 well-microtiter plates (BD Poly D-Lysin, #356662, volume: 25 μl/well) using fresh culture medium. After overnight incubation at 37° C., 25 μl/well dilutions of antibodies were added (15×1:3 dilutions in 1×PBS, assay conc. starts at 30 μg/ml) to the cells for 2 hours at 4° C. After one washing step using 90 μl/well PBST (10×PBS, Roche, #11666789001+0.1% Tween 20), cells were subsequently fixed by the addition of 50 μl/well 0.05% glutaraldehyde (Sigma Cat. No: G5882 in 1×PBS) for 10 min at room temperature (RT). After three additional washing steps using 90 μl/well PBST, secondary antibodies were added for detection: for human antibodies goat anti-human Ig a chain antibody HRP conjugate (Millipore #AP502P) diluted 1:2000 in blocking buffer (1×PBS (Roche #11666789001)+2% BSA (Bovine Serum Albumin Fraction V, fatty acid free, Roche, #10735086001)+0.05% Tween 20) was used (25 μl/well). […] After incubation for 1 h at RT and three additional washing steps using 90 μl/well PBST, 25 μl/well TMB substrate was added (Roche order no. 11835033001) for 10 min and color development to final ODs was determined by measurement at 370 nm/492 nm.
For the characterization of the humanization variants of the VH and VL domains of the GPRC5D binders the ELISA protocol as described above was used (see Example 7). The data are summarized in the table 10 for the humanization variants of 5E11 and in table 11 for the humanization variants of 5F11.

Binder	EC50
B1	0.004 µg/mL and 0.03 nM
B2	0.0055 µg/mL and 0.04 nM
B3	0.0066 µg/mL and 0.04 nM
B4	0.0037 µg/mL and 0.02 nM
B5	0.0063 µg/mL and 0.04 nM
B6	0.0107 µg/mL and 0.07 nM
B7	0.0094 µg/mL and 0.06 nM
B8	0.0124 µg/mL and 0.08 nM
B9	0.0062 µg/mL and 0.04 nM
B10	0.0078 µg/mL and 0.05 nM
B11	0.0078 µg/mL and 0.05 nM
B12	0.0029 µg/mL and 0.02 nM
B13	0.004 µg/mL and 0.03 nM
B14	0.0037 µg/mL and 0.02 nM
B15	0.0046 µg/mL and 0.03 nM
B16	0.0061 µg/mL and 0.04 nM
B17	0.0059 µg/mL and 0.04 nM
B18	0.009 µg/mL and 0.06 nM
B19	0.0104 µg/mL and 0.07 nM
B20	0.0026 µg/mL and 0.02 nM
B21	0.0076 µg/mL and 0.05 nM
B22	0.0041 µg/mL and 0.03 nM
B23	0.0074 µg/mL and 0.05 nM
B24	0.009 µg/mL and 0.06 nM
B25	0.0031 µg/mL and 0.02 nM
B26	0.0045 µg/mL and 0.03 nM
